Results as given in PMC7104937.

Biological target: soluble ectodomain protein of human CD26 (hCD26) (human), P27487
Experiment: crystal structure
Conditions: remark: other sources report otherwise

B1: soluble ectodomain protein of human CD26 (hCD26), P27487 29-766 (receptor)
chain: NKGTDDATADSRKTYTLTDYLKNTYRLKLYSLRWISDHEYLYKQENNILVFNAEYGNSSVFLENSTFDEFGHSINDYSISPDGQFILLEYNYVKQWRHSYTASYDIYDLNKRQLITEERIPNNTQWVTWSPVGHKLAYVWNNDIYVKIEPNLPSYRITWTGKEDIIYNGITDWVYEEEVFSAYSALWWSPNGTFLAYAQFNDTEVPLIEYSFYSDESLQYPKTVRVPYPKAGAVNPTVKFFVVNTDSLSSVTNATSIQITAPASMLIGDHYLCDVTWATQERISLQWLRRIQNYSVMDICDYDESSGRWNCLVARQHIEMSTTGWVGRFRPSEPHFTLDGNSFYKIISNEEGYRHICYFQIDKKDCTFITKGTWEVIGIEALTSDYLYYISNEYKGMPGGRNLYKIQLSDYTKVTCLSCELNPERCQYYSVSFSKEAKYYQLRCSGPGLPLYTLHSSVNDKGLRVLEDNSALDKMLQNVQMPSKKLDFIILNETKFWYQMILPPHFDKSKKYPLLLDVYAGPCSQKADTVFRLNWATYLASTENIIVASFDGRGSGYQGDKIMHAINRRLGTFEVEDQIEAARQFSKMGFVDNKRIAIWGWSYGGYVTSMVLGSGSGVFKCGIAVAPVSRWEYYDSVYTERYMGLPTPEDNLDHYRNSTVMSRAENFKQVEYLLIHGTADDNVHFQQSAQISKALVDVGVDFQAMWYTDEDHGIASSTAHQHIYTHMSHFIKQCFSLP
  stoichiometry N: 2
